Laboratory results: the supplement of paper PMC12042874
± gives the uncertainty stated by the source.

assay: amyloid nucleation score (Sup35N fusion, yeast selection) (log enrichment); library NNK3; higher = more nucleation; inactive = no reads after selection
In short: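 Plasmid inserts were Illumina-sequenced at input and output from psi-negative yeast expressing Sup35N fused to peptides of 20 random codons. The yeast were induced with 100 μM copper sulfate for 24 hours and grown 7 days at 30°C on medium lacking adenine and uracil, and sequences with under 100 input reads were excluded. Nucleation score is the DiMSum log enrichment of output over input reads, centred on the mode score of non-aggregating sequences.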

| Substance | amyloid nucleation score |
| --- | --- |
| KYFRNIYWHISRRIWAKAPG | inactive |
| SLVIQKSFRGDGLRVRHGLQ | inactive |
| CSGLSDLSVTLNCYVNCIFL | 2.48 ± 0.077 |
| FDRKYW | inactive |
| NTIHITTWDELVQLAQCDNL | inactive |
| NIDFLLSYRTMSKFYPNIRM | inactive |
| KDRSCNALWGLDCLYGNKGC | -0.197 ± 0.61 |
| DRLRYNLWS | inactive |
| FSFWTTSN | inactive |
| SHSWQLSYSKSRYVIDAIAR | inactive |
| FSGATSFNQIYAVRTSCLFV | 1.01 ± 0.18 |
| QGNCVNRIC | inactive |
| DSDDNVRKNFAS | inactive |
| PLEGTALRHMVSMYYLSCWT | inactive |
| GKSTYVLFGKWNTEKTRNRG | inactive |
| SGLKQSPQLVLCAVRPRRSN | inactive |
| NSQRASCSSLTYRSELYGNS | inactive |
| LQCAHLFPV | 0.931 ± 0.099 |
| LPSDSGYTGYHVWTLKSTCD | inactive |
| TSVNVWFPFLGVREGFGCSP | 1.37 ± 0.15 |
| MFVVYLGYRRAVIDNDALED | inactive |
| ACCIAGL | inactive |
| GAFPRGSS | inactive |
| SRCRMIGMVISWNG | inactive |
| AYMVTKLVKR | inactive |
| VNNKSFCRWAGANNLLQVMH | inactive |
| EVWRVSDSYSVDEIFVLLNL | inactive |

| Substance | amyloid nucleation score |
| --- | --- |
| DAGLRLLYSSLTGRL | inactive |
| DFTYEL | inactive |
| NTRLSRLKIVFPCL | inactive |
| ADCPPRYRLPWGELGLRGEI | inactive |
| PAMDII | inactive |
| AMNFYI | inactive |
| CPNVYIAIPIFS | -0.423 ± 0.63 |
| GLKNRVSGPPFASTYFWSAL | inactive |
| FSNDFFCLCPS | inactive |
| LTYAALYLNGKMNVENARVV | inactive |
| EDSMRYCH | inactive |
| VNRNVLTVSGCCLVYAPLC | 2.26 ± 0.06 |
| FFFFTLKTSVQADLHDMLSQ | 0.792 ± 0.16 |
| GRHVLGCVDITTGARSLPRM | inactive |
| GFINKDVF | inactive |
| TGLNIILLLCFMMSLGES | inactive |
| VHLSWFSIIVRVDEGDWARR | -0.839 ± 1.5 |
| TPKFLSMLIRTHSSPVRTHL | inactive |
| LVLYCF | inactive |
| IYKKNMAGRVDQKIVTQDPP | inactive |
| KPRSC | inactive |
| FRLRGLKLTSNMDDWMLIKE | inactive |
| TDVDNGLYRIDNLMARAKVY | inactive |
| ITKKRYNCRMFLIT | inactive |
| SRKCWAHKSIDVEVATSSAK | inactive |
| WNLHLLICEKSHTMEVMLLR | inactive |
| ANMCNCKAIHRFNKFNICSR | inactive |

| Substance | amyloid nucleation score |
| --- | --- |
| HKRLMFDMYHPIWMFYCSAC | inactive |
| TGYWI | inactive |
| HGGIHCYFFYSYGDLEKEIL | 2.44 ± 0.078 |
| IVQYELTACDESAVKWIGMP | inactive |
| SIFRKINMYL | inactive |
| VLFAKRLDLTCVFLFIGRVW | inactive |
| VWVMSSWTVRIISPTVWMLV | inactive |
| VSLIVLVRSVCSCVTHSFYE | 2.08 ± 0.097 |
| VTSVHTALFSLQNDWNNKGD | inactive |
| CALHRAGRTLVCFIYIFSGM | inactive |
| CASCEVFMLR | inactive |
| TNANFATDSHFLVITE | inactive |
| ERLGVL | inactive |
| LTNTLAYTVRKKTFQIGLLC | inactive |
| EEFSGNLCDFRLQPRSCCEN | inactive |
| STIVL | inactive |
| VVSLPTNILSNTIGEYMEVQ | inactive |
| RTYARYSMVGRLTMTSTRCE | inactive |
| RFNGDQMYFNLSFKISELFP | 1.09 ± 0.079 |
| NTPNCYFVLRRVILMRLKLS | inactive |
| MRAGWLYFWASANGDNQWEA | inactive |
| GYVPMYVCLSPYHKTVLWLS | 0.447 ± 0.2 |
| YLNFIGTLEV | inactive |
| NVADALS | inactive |
| YTVRMWKDDVRARRGSQGVW | inactive |
| DMGTYVSCRRIFKNGRYSGC | inactive |
